Reference: IntAct's records for PubMed 31663849

B1: Secretagogin (Homo sapiens), O76038 (parent)
chain: MDSSREPTLGRLDAAGFWQVWQRFDADEKGYIEEKELDAFFLHMLMKLGTDDTVMKANLHKVKQQFMTTQDASKDGRIRMKELAGMFLSEDENFLLLFRRENPLDSSVEFMQIWRKYDADSSGFISAAELRNFLRDLFLHHKKAISEAKLEEYTGTMMKIFDRNKDGRLDLNDLARILALQENFLLQFKMDACSTEERKRDFEKIFAYYDVSKTGALEGPEVDGFVKDMMELVQPSISGVDLDKFREILLRHCDVNKDGKIQKSELALCLGLKINP

Variants of: B1
Details: with snp25_mouse Snap25, P60879
Chain of snp25_mouse Snap25, P60879 (P60879 whole entry, looked up): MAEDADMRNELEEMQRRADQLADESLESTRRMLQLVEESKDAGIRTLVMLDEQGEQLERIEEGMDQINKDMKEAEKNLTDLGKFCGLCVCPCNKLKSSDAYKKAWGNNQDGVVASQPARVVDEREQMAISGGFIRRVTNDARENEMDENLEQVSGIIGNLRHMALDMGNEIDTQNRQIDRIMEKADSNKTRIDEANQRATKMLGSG

Variant	effect of a mutation on the interaction
R77H	with no effect
